B1: MPT21 (protein)
chain: MSDNSIATKILNFGHTCWKLQRPYVVKGMISIACGLFGKELLHNTNLISWGLMWKAFFALVPILSFNFFAAIMNQIYDVDIDRINKPDLPLVSGEMSIETAWILSIIVALTGLIVTIKLKSAPLFVFIYIFGIFAGFAYSVPPIRWKQNPSTNFLITISSHVGLAFTSYYASRAALGLPFELRPSFTFLLAFMTVMGMTIAFAKDISDIEGDAKYGVSTVATKLGARNMTFVVSGVLLLNYVAAILAGIIWPQAFNSNVMLLSHAILAFCLIFQTRELALANYASAPSRQFFEFIWLLYYAEYFVYVFI
modifications: MPT21 (recombinant membrane-bound prenyltransferase)
B2: MPT31 (protein)
chain: MSDNSIATKILNFGHACWKLQRPYVVKGMISIACGLFGRELLHNTNLISWGLMWKAFFALVPILSFNFFAAIMNQIYDLHIDRINKPDLPLASGEISVNTAWIMSIIVALTGLIVTIKLKSAPLFVFIYIFGIFAGFAYSVPPIRWKQNPSTNFLITISSHVGLAFTSYYASRAALGLPFELRPSFTFLLAFMTVMGMTIAFAKDISDIEGDAKYGVSTVATKLGARNMTFVVSGVLLLNYLVSISIGIIWPQVFKSNIMILSHAILAFWLILQTRDFALTNYDPEAGRRFFEFIWLLYYAEYLVYVFI
modifications: MPT31 (recombinant membrane-bound prenyltransferase)
B3: MPT26 (protein)
chain: MSDNSIATKILNFGHTCWKLQRPYVVKGMISIACGLFGKELLHNTNLISWGLMWKAFFALVPILSFNFFAAIMNQIYDVDIDRINKPDLPLVSGEMSIETAWILSIIVALTGLIVTIKLKSAPLFVFIYIFGIFAGFAYSVPPIRWKQNPSTNFLITISSHVGLAFTSYSATTSALGLPFVWRPAFSFIIAFMTVMGMTIAFAKDISDIEGDAKYGVSTVATKLGARNMTFVVSGVLLLNYVAAILAGIIWPQAFNSNVMLLSHAILAFWLILQTRDFALTNYDPEAGRRFFEFIWLLYYAEYFVYVFI
modifications: MPT26 (recombinant membrane-bound prenyltransferase)
B4: GPS3-F11-MPT4: fusion protein, SEQ ID NO: 20 (protein)
chain: MQLLNPPQKGKKAVEFDFNKYMDSKAMTVNEALNKAIPLRYPQKIYESMRYSLLAGGKRVRPVLCIAACELVGGTEELAIPTACAIEMIHTMSLMHDDLPCIDNDDLRRGKPTNHKIFGEDTAVTAGNALHSYAFEHIAVSTSKTVGADRILRMVSELGRATGSEGVMGGQMVDIASEGDPSIDLQTLEWIHIHKTAMLLECSVVCGAIIGGASEIVIERARRYARCVGLLFQVVDDILDVTKSSDELGKTAGKDLISDKATYPKLMGLEKAKEFSDELLNRAKGELSCFDPVKAAPLLGLADYVAFRQNGGAEAAAKEAAAKAGGSGGGSGGGGSGGSGGGGSGGGGSMSDNSIATKILNFGHTCWKLQRPYVVKGMISIACGLFGRELFNNRHLFSWGLMWKAFFALVPILSFNFFAAIMNQIYDVDIDRINKPDLPLVSGEMSIETAWILSIIVALTGLIVTIKLKSAPLFVFIYIFGIFAGFAYSVPPIRWKQYPFTNFLITISSHVGLAFTSYSATTSALGLPFVWRPAFSFIIAFMTVMGMTIAFAKDISDIEGDAKYGVSTVATKLGARNMTFVVSGVLLLNYLVSISIGIIWPQVFKSNIMILSHAILAFCLIFQTRELALANYASAPSRQFFEFIWLLYYAEYFVYVFI
modifications: GPS3-F11-MPT4, geranyl diphosphate synthase, membrane-bound prenyltransferase fusion protein
B5: GPS2-F11-MPT4: fusion protein, SEQ ID NO: 21 (protein)
chain: MKDVSLSSFDAHDLDLDKFPEVVRDRLTQFLDAQELTIADIGAPVTDAVAHLRSFVLNGGKRIRPLYAWAGFLAAQGHKNSSEKLESVLDAAASLEFIQACALIHDDIIDSSDTRRGAPTVHRAVEADHRANNFEGDPEHFGVSVSILAGDMALVWAEDMLQDSGLSAEALARTRDAWRGMRTEVIGGQLLDIYLESHANESVELADSVNRFKTAAYTIARPLHLGASIAGGSPQLIDALLHYGHDIGIAFQLRDDLLGVFGDPAITGKPAGDDIREGKRTVLLALALQRADKQSPEAATAIRAGVGKVTSPEDIAVITEHIRATGAEEEVEQRISQLTESGLAHLDDVDIPDEVRAQLRALAIRSTERRMGGAEAAAKEAAAKAGGSGGGSGGGGSGGSGGGGSGGGGSMSDNSIATKILNFGHTCWKLQRPYVVKGMISIACGLFGRELFNNRHLFSWGLMWKAFFALVPILSFNFFAAIMNQIYDVDIDRINKPDLPLVSGEMSIETAWILSIIVALTGLIVTIKLKSAPLFVFIYIFGIFAGFAYSVPPIRWKQYPFTNFLITISSHVGLAFTSYSATTSALGLPFVWRPAFSFIIAFMTVMGMTIAFAKDISDIEGDAKYGVSTVATKLGARNMTFVVSGVLLLNYLVSISIGIIWPQVFKSNIMILSHAILAFCLIFQTRELALANYASAPSRQFFEFIWLLYYAEYFVYVFI
modifications: GPS2-F11-MPT4, geranyl diphosphate synthase, membrane-bound prenyltransferase fusion protein

Columns and labels:
[1] = tested on: olivetolic acid; test: Screening of MPT library hits in Yarrowia, OA feed (Example 2); format: cell-based; details: OA Feed (48 h); for CBGA: 2 mM olivetolic acid, minimal media, 0.5% ethanol, strain sCL-SE-0128, product accumulated; for CBGA/FCBGA: product ratio
Procedure: (§1) As described in detail below, plasmid pCL-SE-0337.MPT21,26,31 were transformed into strain sCL-SE-0128 and 4 separate colonies of each were patched and precultured for 48 h. Assay cultures consisted of minimal media with 100 mM MES pH 6.5, 0.5% ethanol and 2 mM olivetolic or divarinic acid (DVA). Cultures with olivetolic acid were quenched with equal volume of ethanol after 48 h total growth while cultures with DVA with quenched after 96 h total growth. Enzymes produced CBGA and FCBGA from olivetolic acid and CBGVA and FCBGVA from DVA. Averages and standard deviations were calculated from replicates.
(§2) Overnight YPD (10 g/L yeast extract, 20 g/L peptone, 2% dextrose) cultures were inoculated from glycerol stocks of the appropriate strain and grown at 30° C. with 250 rpm shaking. Once cultures had reached an OD600 of 4-6, cultures were centrifuged at 500×g for 5 min, supernatants were discarded, and cell pellets were resuspended in equal volume of water. Resuspended cells were centrifuged at 500×g for 5 min, supernatants were discarded, and cells were resuspended in a volume (75 μL×OD×Vculture) of transformation cocktail (45% PEG-400, 0.1 M LiAc, 0.1 M DTT, and 25 ug/100 μL SS Salmon Sperm DNA). For each transformation, >1 μg of plasmid DNA was added to 55 μL cells/transformation cocktail and vortexed for 2 s. Transformations were incubated at 39° C. for 1 h with 250 rpm shaking. Transformations were resuspended in 750 μL YPD with 1 M sorbitol and recovered at 30° C. overnight with 250 rpm shaking. The next day, transformations were centrifuged at 500×g for 5 min, supernatants were discarded, and cell pellets were resuspended in 750 YPD. Resuspended transformations were plated on YPD with appropriate selection or YNBD (6.71 g/L yeast nitrogen base+nitrogen, 0.5% casamino acids, 2% dextrose) agar plates and grown at 30° C. for 2 days. Individual colonies were patched onto YPD plates with appropriate selection or YNBD plates and grown at 30° C. overnight. Patches were used to inoculate 0.5 mL YPD with appropriate selection or YNBD precultures in 96 w blocks and grown at 30° C. for 24-48 h with 1000 rpm shaking. For assays, 0.5 mL YPD with appropriate selection or YNBD cultures containing substrate were inoculated with 2 μL from precultures and grown at 30° C. for 2-4 days with 1000 rpm shaking with 2% glucose added every 24 h. Assay cultures were quenched by addition of 0.5 mL ethanol with 0.2% formic acid and 0.5 mg/mL pentyl-benzoic acid. Precipitates were pelleted by centrifuging at 4600×g for 10 min and then 200 μL was transferred to fresh plates, sealed, and analyzed via HPLC.
(§3) All samples were quenched with equal volume of EtOH containing 0.2 mg/mL internal standard (3,5-Diisopropyl-2-hydroxybenzoic acid CAS #2215-21-6) centrifuged, and clarified solutions were analyzed by HPLC-MS
(§4) • Column: 2.1×50 mm COSMOCORE PBr (Nacalai USA, Inc.) • Mobile Phase: A; 0.1% formic acid in water, B; 0.1% formic acid in acetonitrile • Flow: 0.45 mL/min • Temp: % 50 Celsius • Gradient: 20%B at 0 min, 70%B at 2.3 min, 89% B at 4.2 min, 20% B at 4.3 min, 20%B at 6 min

[2] = tested on: divarinic acid (DVA); test: Screening of MPT library hits in Yarrowia, DVA feed (Example 2); format: cell-based; details: DVA Feed (96 h); for CBGVA: 2 mM DVA, minimal media, 0.5% ethanol, strain sCL-SE-0128, product accumulated; for CBGVA/FCBGVA: product ratio
Procedure: as §1, §2, §3, §4

[3] = tested on: olivetolic acid; test: MPT fusions with GPS1.1 vs unfused MPTs, OA feed (Example 8, Table 9); format: cell-based, Yarrowia; details: 2 mM olivetolic acid, 48 h quench; for CBGA / FCBGA: 2% glucose, strain sCL-SE-0128; for CBGA/FCBGA: product ratio
Procedure: (§5) As described below, plasmids pCL-SE-0406, pCL-SE-0664, pCL-SE-0663, pCL-SE-0662, pCL-SE-0380 (MPT4), pCL-SE-0337.MPT21, pCL-SE-0337.MPT26, and pCL-SE-0337.MPT31 were transformed into strain sCL-SE-0128. Multiple colonies per transformation were precultured for 48 h in YNB containing glucose (2%), casamino acids (0.5%), and MES (100 mM pH 6.5). Pre-culture was used to inoculate assay medium comprised of YNB containing glucose (2%), casamino acids (0.5%), MES (100 mM pH 6.5), and olivetolic acid (2 mM). Cultures were quenched with equal volume of ethanol after 48 h total growth and assayed for CBGA and FCBGA. Averages and standard deviations were calculated from replicates.
as §2, §3, §4

[4] = tested on: divarinic acid; test: MPT fusions with GPS1.1 vs unfused MPTs, DVA feed (Example 9, Table 11); format: cell-based, Yarrowia; details: 2 mM divarinic acid
Procedure: as §5, with “pCL-SE-0337.MPT21,” for “pCL-SE-0337.MPT21, pCL-SE-0337.MPT26, and pCL-SE-0337.MPT31”, “divarinic” for “olivetolic”, “quenched” for “quenched with equal volume of ethanol”, “CBGVA” for “CBGA”, “FCBGVA.” for “FCBGA.”
as §2, §3, §4

[5] = tested on: olivetolic acid; test: Fusions of different GPSs with MPT4, in vivo assay (Example 7); format: cell-based, Yarrowia; details: 1 mM olivetolic acid, 72 h quench; for CBGA / FCBGA: 2% glycerol, strain sCL-SE-0128; for CBGA/FCBGA: product ratio
Procedure: As described below, plasmids pCL-SE-0337, 0406, 0452 and 0453 were transformed into strain sCL-SE-0128. Multiple colonies per transformation were precultured for 24 h in YNB containing glycerol (2%), casamino acids (0.5%), and MES (100 mM pH 6.5). Pre-culture was used to inoculate assay medium comprised of YNB containing glycerol (2%), casamino acids (0.5%), MES (100 mM pH 6.5), and olivetolic acid (1 mM). Cultures were quenched after 72 h total growth and assayed for CBGA and F-CBGA. Averages and standard deviations were calculated from replicates.
However, sCL-SE-0128 expresses HMGR and GPS1.1 to increase intracellular GPP levels for prenylation of OA to CBGA. The plasmids that were transformed contain a gene expressing a fusion between two different GPSs and a prenyl-transferase. The same linker is used for all constructs. […] Additionally, as illustrated by GPS2 (pCL-SE-0453), certain GPS-MPT combinations result in very high CBGA/ FCBGA ratios.
as §2, §3, §4

[6] = 2% glucose, quenched after 48 h, strain sCL-SE-0128

Molecule	CBGA [1] [µM]	CBGA/FCBGA [1]	CBGVA [2] [µM]	CBGVA/FCBGVA [2]	CBGA [3] [µM]	FCBGA [3] [µM]	CBGA/FCBGA [3]	CBGVA [4, 6] [µM]	FCBGVA [4, 6] [µM]	CBGVA/FCB ([4]; 48 h, product ratio)	CBGA [5] [µM]	FCBGA [5] [µM]	CBGA/FCBGA [5]
B1	310 ± 11	3.1	647 ± 45	6.0	109 ± 27	43 ± 10	2.6	9 ± 3	1 ± 1	10.8			
B2	175 ± 63	13.9	260 ± 79	22.6	40 ± 12	3 ± 2	13.4						
B3	261 ± 62	4.5	620 ± 134	13.7	61 ± 5	14 ± 1	4.4						
B4											255 ± 22	41 ± 3	6.2
B5											282 ± 69	11 ± 2	26.8

— US20240228986A1, “ENGINEERED CELLS, ENZYMES, AND METHODS FOR PRODUCING CANNABINOIDS” (priority 2021, published 2024)
